Assay results from patent publication US20250207095A1.

Target: 4-1BB (UniProt Q07011)
Assay: cell-based or functional assay

Chain of 4-1BB (Q07011 24-255 limits assumed): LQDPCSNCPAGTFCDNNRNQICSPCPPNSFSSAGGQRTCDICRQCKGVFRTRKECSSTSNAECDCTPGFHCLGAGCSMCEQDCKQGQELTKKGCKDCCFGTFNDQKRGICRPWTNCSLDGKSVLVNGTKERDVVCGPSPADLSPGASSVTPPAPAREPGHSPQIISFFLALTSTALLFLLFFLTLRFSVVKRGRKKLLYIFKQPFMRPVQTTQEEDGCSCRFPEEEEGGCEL

expansion of TRAC-1XX-iT cells from D35 to D42: 30 fold
Substance: 4-1BB ligand (from UniProt P41273 1-254)
